Test results as given in patent publication US20070122429A1, “Designed antigens to elicit neutralizing antibodies against sterically restricted antigen and method of using same” (priority 2005, published 2007).

How the values were obtained:
[1] = biological target: HIV-1 HXB2 Env (gp41 N-trimer region) (HIV-1 HXB2) (UniProt P04578); test: cell-based or functional assay
[2] = biological target: HIV-1 JRFL Env (gp41 N-trimer region) (HIV-1 JRFL); test: cell-based or functional assay

## Ub-C37 (from UniProt P0CG48 1-76; P04578 625-661)
[1]
  IC50, viral infectivity HXB2: 6.8 nM
[2]
  IC50, viral infectivity JRFL: 37.7 nM

## MBP-H6 (from UniProt P0AEX9 27-392)
[1]
  no inhibition of cell-cell fusion or viral infectivity (HXB2 Env) up to the stated concentration: > 1 µM
[2]
  no inhibition of viral infectivity (JRFL Env) up to the stated concentration: > 10 µM

## GFP-H6
[1]
  no inhibition of cell-cell fusion or viral infectivity (HXB2 Env) up to the stated concentration: > 1 µM
[2]
  no inhibition of viral infectivity (JRFL Env) up to the stated concentration: > 1 µM

## BPTI-H6 (from UniProt P00974 36-93)
[1]
  no inhibition of cell-cell fusion or viral infectivity (HXB2 Env) up to the stated concentration: > 1 µM
[2]
  no inhibition of viral infectivity (JRFL Env) up to the stated concentration: > 1 µM
